According to patent publication US20140087995A1 (published 2014):
Numbered stars: 1 amine (or outer) side, 2 acyl side, 3 side chain; on linkers, the order of the positions; unused ones are H or OH. Bridge positions count the residues as written; N and C are the ends. Side chains are listed from the residue outwards. Ends that are not written are not given here. * marks the point of attachment. C20 diacid = O=C(O)CCCCCCCCCCCCCCCCCCC(=O)*; γGlu = O=C(O)[C@H](CCC(=O)[*:2])N[*:1]; AEEA = NCCOCCOCC(=O)O

T1: rat calcitonin receptor (rat, UniProt P32214 25-516)
T1 construct: whole, on cells; Membranes prepared from transiently transfected BHK tk'ts 13 cells (Assay VIII); also called rCTR; rCT
T1 sequence (looked up): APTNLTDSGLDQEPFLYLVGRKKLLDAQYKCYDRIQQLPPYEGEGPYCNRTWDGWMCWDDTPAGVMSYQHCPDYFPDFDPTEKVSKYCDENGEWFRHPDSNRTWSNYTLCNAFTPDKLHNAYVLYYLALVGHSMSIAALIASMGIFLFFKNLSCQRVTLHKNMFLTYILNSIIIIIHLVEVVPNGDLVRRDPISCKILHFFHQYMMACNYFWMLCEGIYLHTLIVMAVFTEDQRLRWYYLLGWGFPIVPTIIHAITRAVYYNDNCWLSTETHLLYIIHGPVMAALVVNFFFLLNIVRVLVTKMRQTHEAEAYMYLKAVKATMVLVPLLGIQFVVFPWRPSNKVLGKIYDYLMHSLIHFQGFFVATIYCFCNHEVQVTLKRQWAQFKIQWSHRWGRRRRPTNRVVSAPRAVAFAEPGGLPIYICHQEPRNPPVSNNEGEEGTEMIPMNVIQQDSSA

T2: human calcitonin receptor (human, UniProt P30988 25-474)
T2 construct: whole, on cells; Membranes prepared from a stably transfected BHK cell line (Assay VII); also called hCTR; hCT
T2 sequence (looked up): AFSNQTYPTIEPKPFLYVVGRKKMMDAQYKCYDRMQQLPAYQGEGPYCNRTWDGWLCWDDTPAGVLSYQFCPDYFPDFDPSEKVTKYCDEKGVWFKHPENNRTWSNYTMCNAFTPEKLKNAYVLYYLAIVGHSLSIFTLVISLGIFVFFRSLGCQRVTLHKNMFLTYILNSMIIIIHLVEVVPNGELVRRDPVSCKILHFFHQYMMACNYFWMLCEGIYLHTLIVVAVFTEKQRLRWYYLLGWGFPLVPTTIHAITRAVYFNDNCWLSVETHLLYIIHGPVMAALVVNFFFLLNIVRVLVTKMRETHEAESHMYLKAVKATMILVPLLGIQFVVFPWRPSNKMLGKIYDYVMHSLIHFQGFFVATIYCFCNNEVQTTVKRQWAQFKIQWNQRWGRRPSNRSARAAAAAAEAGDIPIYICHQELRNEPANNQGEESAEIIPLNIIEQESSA

T3: rat amylin receptor (rat calcitonin receptor + rat RAMP 3) (rat, UniProt P32214 25-516; Q9JJ73 23-147)
T3 construct: whole, on cells; Membranes prepared from transiently transfected BHK tk'ts 13 cells (Assay VI); also called rAmylin-R; rAmylin
T3 sequence (looked up) 1: T1 sequence (looked up)
T3 sequence (looked up) 2: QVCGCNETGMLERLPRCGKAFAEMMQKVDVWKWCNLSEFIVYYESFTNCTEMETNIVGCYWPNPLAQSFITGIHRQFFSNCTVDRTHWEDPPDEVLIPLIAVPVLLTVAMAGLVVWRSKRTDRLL

B1: N^ε1-[2-[2-[2-[[(4S)-4-carboxy-4-(19-carboxynonadecanoylamino)butanoyl]amino]ethoxy]ethoxy]acetyl]-[Thr14,Arg17,Pro21,Pro27,Pro31]-h-amylin (peptide)
peptide: K([AEEA-γGlu-C20 diacid])CNTATCATQRLATFLRHSSPNFGAIPSSTPVGSNTY-NH2
modifications: disulfide 2-7; N-terminus assumed
SMILES: CC[C@H](C)[C@H](NC(=O)[C@H](C)NC(=O)CNC(=O)[C@H](Cc1ccccc1)NC(=O)[C@H](CC(N)=O)NC(=O)[C@@H]1CCCN1C(=O)[C@H](CO)NC(=O)[C@H](CO)NC(=O)[C@H](Cc1c[nH]cn1)NC(=O)[C@H](CCCNC(=N)N)NC(=O)[C@H](CC(C)C)NC(=O)[C@H](Cc1ccccc1)NC(=O)[C@@H](NC(=O)[C@H](C)NC(=O)[C@H](CC(C)C)NC(=O)[C@H](CCCNC(=N)N)NC(=O)[C@H](CCC(N)=O)NC(=O)[C@@H](NC(=O)[C@H](C)NC(=O)[C@@H]1CSSC[C@H](NC(=O)[C@@H](N)CCCCNC(=O)COCCOCCNC(=O)CC[C@H](NC(=O)CCCCCCCCCCCCCCCCCCC(=O)O)C(=O)O)C(=O)N[C@@H](CC(N)=O)C(=O)N[C@@H]([C@@H](C)O)C(=O)N[C@@H](C)C(=O)N[C@@H]([C@@H](C)O)C(=O)N1)[C@@H](C)O)[C@@H](C)O)C(=O)N1CCC[C@H]1C(=O)N[C@@H](CO)C(=O)N[C@@H](CO)C(=O)N[C@H](C(=O)N1CCC[C@H]1C(=O)N[C@H](C(=O)NCC(=O)N[C@@H](CO)C(=O)N[C@@H](CC(N)=O)C(=O)N[C@H](C(=O)N[C@@H](Cc1ccc(O)cc1)C(N)=O)[C@@H](C)O)C(C)C)[C@@H](C)O
notes: Analogue of human amylin; also called compound 75
B2: N^ε1-[(4S)-4-carboxy-4-(19-carboxynonadecanoylamino)butanoyl]-[Arg14,Arg17,Pro21,Pro27,Pro31]-h-amylin (peptide)
peptide: K([γGlu-C20 diacid])CNTATCATQRLARFLRHSSPNFGAIPSSTPVGSNTY-NH2
modifications: disulfide 2-7; N-terminus assumed
SMILES: CC[C@H](C)[C@H](NC(=O)[C@H](C)NC(=O)CNC(=O)[C@H](Cc1ccccc1)NC(=O)[C@H](CC(N)=O)NC(=O)[C@@H]1CCCN1C(=O)[C@H](CO)NC(=O)[C@H](CO)NC(=O)[C@H](Cc1c[nH]cn1)NC(=O)[C@H](CCCNC(=N)N)NC(=O)[C@H](CC(C)C)NC(=O)[C@H](Cc1ccccc1)NC(=O)[C@H](CCCNC(=N)N)NC(=O)[C@H](C)NC(=O)[C@H](CC(C)C)NC(=O)[C@H](CCCNC(=N)N)NC(=O)[C@H](CCC(N)=O)NC(=O)[C@@H](NC(=O)[C@H](C)NC(=O)[C@@H]1CSSC[C@H](NC(=O)[C@@H](N)CCCCNC(=O)CC[C@H](NC(=O)CCCCCCCCCCCCCCCCCCC(=O)O)C(=O)O)C(=O)N[C@@H](CC(N)=O)C(=O)N[C@@H]([C@@H](C)O)C(=O)N[C@@H](C)C(=O)N[C@@H]([C@@H](C)O)C(=O)N1)[C@@H](C)O)C(=O)N1CCC[C@H]1C(=O)N[C@@H](CO)C(=O)N[C@@H](CO)C(=O)N[C@H](C(=O)N1CCC[C@H]1C(=O)N[C@H](C(=O)NCC(=O)N[C@@H](CO)C(=O)N[C@@H](CC(N)=O)C(=O)N[C@H](C(=O)N[C@@H](Cc1ccc(O)cc1)C(N)=O)[C@@H](C)O)C(C)C)[C@@H](C)O
notes: Analogue of human amylin; also called compound 63
B3: N^ε1-[(4S)-4-carboxy-4-(19-carboxynonadecanoylamino)butanoyl]-[Arg14,Arg17,Pro21,Pro27,Pro34]-h-amylin (peptide)
peptide: K([γGlu-C20 diacid])CNTATCATQRLARFLRHSSPNFGAIPSSTNVGPNTY-NH2
modifications: disulfide 2-7; N-terminus assumed
SMILES: CC[C@H](C)[C@H](NC(=O)[C@H](C)NC(=O)CNC(=O)[C@H](Cc1ccccc1)NC(=O)[C@H](CC(N)=O)NC(=O)[C@@H]1CCCN1C(=O)[C@H](CO)NC(=O)[C@H](CO)NC(=O)[C@H](Cc1c[nH]cn1)NC(=O)[C@H](CCCNC(=N)N)NC(=O)[C@H](CC(C)C)NC(=O)[C@H](Cc1ccccc1)NC(=O)[C@H](CCCNC(=N)N)NC(=O)[C@H](C)NC(=O)[C@H](CC(C)C)NC(=O)[C@H](CCCNC(=N)N)NC(=O)[C@H](CCC(N)=O)NC(=O)[C@@H](NC(=O)[C@H](C)NC(=O)[C@@H]1CSSC[C@H](NC(=O)[C@@H](N)CCCCNC(=O)CC[C@H](NC(=O)CCCCCCCCCCCCCCCCCCC(=O)O)C(=O)O)C(=O)N[C@@H](CC(N)=O)C(=O)N[C@@H]([C@@H](C)O)C(=O)N[C@@H](C)C(=O)N[C@@H]([C@@H](C)O)C(=O)N1)[C@@H](C)O)C(=O)N1CCC[C@H]1C(=O)N[C@@H](CO)C(=O)N[C@@H](CO)C(=O)N[C@H](C(=O)N[C@@H](CC(N)=O)C(=O)N[C@H](C(=O)NCC(=O)N1CCC[C@H]1C(=O)N[C@@H](CC(N)=O)C(=O)N[C@H](C(=O)N[C@@H](Cc1ccc(O)cc1)C(N)=O)[C@@H](C)O)C(C)C)[C@@H](C)O
notes: Analogue of human amylin; also called compound 65
B4: N^ε1-[(4S)-4-carboxy-4-(19-carboxynonadecanoylamino)butanoyl]-[Ala14,Arg17,Pro21,Pro27,His34]-h-amylin (peptide)
peptide: K([γGlu-C20 diacid])CNTATCATQRLAAFLRHSSPNFGAIPSSTNVGHNTY-NH2
modifications: disulfide 2-7; N-terminus assumed
SMILES: CC[C@H](C)[C@H](NC(=O)[C@H](C)NC(=O)CNC(=O)[C@H](Cc1ccccc1)NC(=O)[C@H](CC(N)=O)NC(=O)[C@@H]1CCCN1C(=O)[C@H](CO)NC(=O)[C@H](CO)NC(=O)[C@H](Cc1c[nH]cn1)NC(=O)[C@H](CCCNC(=N)N)NC(=O)[C@H](CC(C)C)NC(=O)[C@H](Cc1ccccc1)NC(=O)[C@H](C)NC(=O)[C@H](C)NC(=O)[C@H](CC(C)C)NC(=O)[C@H](CCCNC(=N)N)NC(=O)[C@H](CCC(N)=O)NC(=O)[C@@H](NC(=O)[C@H](C)NC(=O)[C@@H]1CSSC[C@H](NC(=O)[C@@H](N)CCCCNC(=O)CC[C@H](NC(=O)CCCCCCCCCCCCCCCCCCC(=O)O)C(=O)O)C(=O)N[C@@H](CC(N)=O)C(=O)N[C@@H]([C@@H](C)O)C(=O)N[C@@H](C)C(=O)N[C@@H]([C@@H](C)O)C(=O)N1)[C@@H](C)O)C(=O)N1CCC[C@H]1C(=O)N[C@@H](CO)C(=O)N[C@@H](CO)C(=O)N[C@H](C(=O)N[C@@H](CC(N)=O)C(=O)N[C@H](C(=O)NCC(=O)N[C@@H](Cc1c[nH]cn1)C(=O)N[C@@H](CC(N)=O)C(=O)N[C@H](C(=O)N[C@@H](Cc1ccc(O)cc1)C(N)=O)[C@@H](C)O)C(C)C)[C@@H](C)O
notes: Analogue of human amylin; also called compound 93
B5: N^ε1-[(4S)-4-carboxy-4-(19-carboxynonadecanoylamino)butanoyl]-[Arg14,Arg17,Pro21,Pro27]-h-amylin (peptide)
peptide: K([γGlu-C20 diacid])CNTATCATQRLARFLRHSSPNFGAIPSSTNVGSNTY-NH2
modifications: disulfide 2-7; N-terminus assumed
SMILES: CC[C@H](C)[C@H](NC(=O)[C@H](C)NC(=O)CNC(=O)[C@H](Cc1ccccc1)NC(=O)[C@H](CC(N)=O)NC(=O)[C@@H]1CCCN1C(=O)[C@H](CO)NC(=O)[C@H](CO)NC(=O)[C@H](Cc1c[nH]cn1)NC(=O)[C@H](CCCNC(=N)N)NC(=O)[C@H](CC(C)C)NC(=O)[C@H](Cc1ccccc1)NC(=O)[C@H](CCCNC(=N)N)NC(=O)[C@H](C)NC(=O)[C@H](CC(C)C)NC(=O)[C@H](CCCNC(=N)N)NC(=O)[C@H](CCC(N)=O)NC(=O)[C@@H](NC(=O)[C@H](C)NC(=O)[C@@H]1CSSC[C@H](NC(=O)[C@@H](N)CCCCNC(=O)CC[C@H](NC(=O)CCCCCCCCCCCCCCCCCCC(=O)O)C(=O)O)C(=O)N[C@@H](CC(N)=O)C(=O)N[C@@H]([C@@H](C)O)C(=O)N[C@@H](C)C(=O)N[C@@H]([C@@H](C)O)C(=O)N1)[C@@H](C)O)C(=O)N1CCC[C@H]1C(=O)N[C@@H](CO)C(=O)N[C@@H](CO)C(=O)N[C@H](C(=O)N[C@@H](CC(N)=O)C(=O)N[C@H](C(=O)NCC(=O)N[C@@H](CO)C(=O)N[C@@H](CC(N)=O)C(=O)N[C@H](C(=O)N[C@@H](Cc1ccc(O)cc1)C(N)=O)[C@@H](C)O)C(C)C)[C@@H](C)O
notes: Analogue of human amylin; also called compound 83

Target: T1, rat calcitonin receptor
Assay: SPA competition vs 125I-calcitonin, membranes of BHK cells with rat calcitonin receptor (Assay VIII)

First: B1
Second: B2
The IC50 of the first is 3.6-fold higher: 442 nM for the first, 124 nM for the second. The second is the more potent here.

B3 and B4 are within 1.5-fold of each other in IC50: 108 nM for the first, 131 nM for the second.

B5 was tested, and the IC50 was 140 nM.

Target: T1, rat calcitonin receptor
Assay: ratio of binding IC50s: rat calcitonin receptor / rat amylin receptor (reference)

Compared with B1, B2 is lower in “Ratio rCT/rAmylin binding” value: 110 for the first, 35.6 for the second.

First: B3
Second: B4
The “Ratio rCT/rAmylin binding” value of the first is higher: 93.2 for the first, 83.2 for the second.

With B5 the “Ratio rCT/rAmylin binding” value was 49.7.

Target: T2, human calcitonin receptor
Assay: ratio of binding IC50s: human calcitonin receptor / human amylin receptor (reference)
Procedure, shortened: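 Membranes (35 ng/μL final) + SPA beads, 50 mM Hepes pH 7.4 buffer with 1 mM CaCl2, 5 mM MgCl₂, 0.1% OA, 0.02% Tween20; 120 min, 25° C, shaking; centrifuged, counted; IC₅₀ by one-site binding competition.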

First: B1
Second: B2
The “Ratio hCT/hAmylin binding” value of the first is lower: 91.4 for the first, 157 for the second.

Compared with B3, B4 is higher in “Ratio hCT/hAmylin binding” value: 82.4 for the first, 101 for the second.

With B5 the “Ratio hCT/hAmylin binding” value was 146.

Target: T3, rat amylin receptor (rat calcitonin …)
Assay: SPA competition vs 125I-rat amylin, membranes of BHK cells with rat calcitonin receptor + rat RAMP3 (Assay VI)

B1 and B2 are within 1.5-fold of each other in IC50: 4.03 nM for the first, 3.48 nM for the second.

B3 and B4 are within 1.5-fold of each other in IC50: 1.16 nM for the first, 1.58 nM for the second.

In the case of B5, the IC50 is reported as 2.83 nM.
